Experimental data: paper PMC9396027, “Comparative transcriptome analysis of MDBK cells reveals that BoIFN-γ augmented host immune responses to bovine herpesvirus 1 infection” (Frontiers in Microbiology, 2022)

Biological target: the molecule itself
Experiment: SEC; Superdex 200 size exclusion column, refolded BoIFN-γ; peak mass compared with the monomer mass (14.2 kDa)

B1: Bovine interferon gamma (BoIFN-γ) (ligand, UniProt P07353 24-166, looked up)
chain: QGQFFREIENLKEYFNASSPDVAKGGPLFSEILKNWKDESDKKIIQSQIVSFYFKLFENLKDNQVIQRSMDIIKQDMFQKFLNGSSEKLEDFKKLIQIPVDDLQIQRKAINELIKVMNDLSPKSNLRKRKRSQNLFRGRRASM
notes: Bovine interferon gamma; synthesised gene encoding 122 amino acids, according to GenBank EU276066, nucleotides 24-390; monomer 14.2 kDa; Cloned into pET-21a(+); 122 amino acids is shorter than the mature protein as I recall it, so the construct is probably truncated; also called Bovine IFN-γ; bovine interferon gamma dimer protein
- stoichiometry N: 2
